Laboratory results reported in patent US20060193849A1.

Biological target: MUC-1 gene product, the membrane mucin glycoprotein (polymorphic epithelial mucin or PEM) (human) (UniProt P15941)
Assay: flow cytometry equilibrium binding on MCF7 cells
Settings: scFv

MUC-1 gene product, the membrane mucin glycoprotein (polymorphic epithelial mucin or PEM) (human), sequence (P15941 24-1255): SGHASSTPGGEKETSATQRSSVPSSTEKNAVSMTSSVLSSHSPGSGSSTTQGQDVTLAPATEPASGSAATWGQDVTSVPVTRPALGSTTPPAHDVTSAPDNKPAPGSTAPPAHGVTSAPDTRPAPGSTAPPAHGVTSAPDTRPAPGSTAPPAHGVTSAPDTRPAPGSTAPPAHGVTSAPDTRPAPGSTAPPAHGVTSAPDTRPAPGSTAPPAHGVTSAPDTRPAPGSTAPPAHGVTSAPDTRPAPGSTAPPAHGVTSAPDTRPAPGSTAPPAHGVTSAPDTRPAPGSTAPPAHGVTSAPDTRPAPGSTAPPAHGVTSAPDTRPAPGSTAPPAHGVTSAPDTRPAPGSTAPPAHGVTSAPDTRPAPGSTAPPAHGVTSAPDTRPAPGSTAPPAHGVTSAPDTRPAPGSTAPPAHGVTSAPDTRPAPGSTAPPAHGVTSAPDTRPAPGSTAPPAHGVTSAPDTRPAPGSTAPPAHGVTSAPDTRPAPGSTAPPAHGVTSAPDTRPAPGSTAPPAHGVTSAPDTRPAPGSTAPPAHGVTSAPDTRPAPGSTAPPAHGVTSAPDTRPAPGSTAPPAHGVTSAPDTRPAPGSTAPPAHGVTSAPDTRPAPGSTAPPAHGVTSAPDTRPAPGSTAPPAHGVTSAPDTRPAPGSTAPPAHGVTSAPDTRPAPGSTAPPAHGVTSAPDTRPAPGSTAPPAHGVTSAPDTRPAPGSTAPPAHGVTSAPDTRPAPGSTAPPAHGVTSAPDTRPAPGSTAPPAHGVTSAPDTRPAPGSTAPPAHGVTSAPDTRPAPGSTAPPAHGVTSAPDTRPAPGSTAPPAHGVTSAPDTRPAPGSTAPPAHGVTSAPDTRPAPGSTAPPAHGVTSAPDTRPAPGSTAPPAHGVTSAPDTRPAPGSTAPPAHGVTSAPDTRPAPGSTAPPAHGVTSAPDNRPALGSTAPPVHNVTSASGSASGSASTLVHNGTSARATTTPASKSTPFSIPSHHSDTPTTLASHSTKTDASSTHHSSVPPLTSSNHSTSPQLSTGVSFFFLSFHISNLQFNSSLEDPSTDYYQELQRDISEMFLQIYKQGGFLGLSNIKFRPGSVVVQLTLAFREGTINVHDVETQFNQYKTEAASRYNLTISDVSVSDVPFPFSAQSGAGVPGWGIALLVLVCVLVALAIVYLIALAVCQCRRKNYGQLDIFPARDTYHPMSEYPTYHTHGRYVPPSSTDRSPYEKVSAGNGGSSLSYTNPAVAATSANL

Substance: huHMFG1 wild-type scFv 22W
- Kd: 199 nM
